Reference: patent publication US7026443
Read-outs that look alike come from different tables or passages of the source.

How the values were obtained:
HLA-A*0301 (human) [1] = assay: competition with 125I-labelled standard peptide for purified HLA-A*0301, gel filtration; conditions: for relative binding ratio (A*0301): scale: ratio
HLA-A*0301 (human) [2] = assay: competition with 125I-labelled standard peptide for purified HLA, gel filtration
HLA-A*1101 (human) = assay: as above
[3] = remark: other sources report otherwise

Work on AVCDKCLKFY (modifications not checked) yielded a binding affinity ratio (IC50 of the standard peptide / IC50 of the test peptide) (HLA-A*0301 (human) [1]) of 0.0052.

With CCRSSRTRR (modifications not checked) [HPV16 E6 position 146 peptide …] the binding affinity ratio (IC50 of the standard peptide / IC50 of the test peptide) (HLA-A*0301 (human) [1]) was 0.0003.

In the case of NIRGRWTGR (modifications not checked), the binding affinity ratio (IC50 of standard peptide / IC50 of test peptide) (HLA-A*0301 (human) [2]) is reported as 0.0014 and the binding affinity ratio (IC50 of standard peptide / IC50 of test peptide) (HLA-A*1101 (human)) is reported as 0.0005.

Binder GDTPEWIQR (modifications not checked) [HPV18 E1 341 …] has a binding affinity ratio (IC50 of standard peptide / IC50 of test peptide) (HLA-A*0301 (human) [1]) of 0.0008.

Binder LILALLRYK (modifications not checked) [HPV18 E1 peptide … (position 281, 9 amino acids)] has a relative binding ratio (A*0301) (HLA-A*0301 (human) [1]) of 0.27.

IVYRDGNPY (modifications not checked) [… (HPV16 E6, position 59)] showed a relative binding ratio (IC50 of standard peptide / IC50 of test peptide) (ratio to standard peptide) (HLA-A*0301 (human) [1]; [3]) of 0.15.

Binder HLDKKQRFH (modifications not checked) [… (HPV16 E6, position 125)] has a relative binding ratio (IC50 of standard peptide / IC50 of test peptide) (ratio to standard peptide) (HLA-A*0301 (human) [1]; [3]) of 0.0009.

In the case of LTTNIHPAK (modifications not checked) [… (HPV18 E1, position 571, 9 amino acids)], the binding affinity ratio (IC50 of standard peptide / IC50 of test peptide) (HLA-A*0301 (human) [1]) is reported as 0.091.

Work on ISLNSGQKK (modifications not checked) [HPV18 E1 116 …] yielded a binding affinity ratio (IC50 of standard peptide / IC50 of test peptide) (HLA-A*0301 (human) [1]) of 0.0003.

Work on CMSCCRSSR (modifications not checked) [HPV16 E6 position 143 peptide …] yielded a binding affinity ratio (IC50 of the standard peptide / IC50 of the test peptide) (HLA-A*0301 (human) [1]) of 0.0033.

Binder PLCPEEKQR (modifications not checked) [… (HPV16 E6, position 116)] has a relative binding ratio (IC50 of standard peptide / IC50 of test peptide) (ratio to standard peptide) (HLA-A*0301 (human) [1]) of 0.0002.

With AMFQDPQER (modifications not checked) the binding affinity ratio (IC50 of standard peptide / IC50 of test peptide) (HLA-A*0301 (human) [2]; [3]) was 0.017 and the binding affinity ratio (IC50 of standard peptide / IC50 of test peptide) (HLA-A*1101 (human); [3]) was 0.032.

In the case of KLRAGQNHR (modifications not checked) [HPV18 E1 peptide … (position 647, 9 amino acids)], the relative binding ratio (A*0301) (HLA-A*0301 (human) [1]) is reported as 0.3.

TGRCMSCCR (modifications not checked) [… (HPV16 E6, position 140)] showed a relative binding ratio (IC50 of standard peptide / IC50 of test peptide) (ratio to standard peptide) (HLA-A*0301 (human) [1]) of 0.0003.

For WTGRCMSCCR (modifications not checked), the binding affinity ratio (IC50 of standard peptide / IC50 of test peptide) (HLA-A*0301 (human) [2]) was 0.0003 and the binding affinity ratio (IC50 of standard peptide / IC50 of test peptide) (HLA-A*1101 (human)) was 0.0008.

Work on ELRHYSDSVY (modifications not checked) [HPV18 E6 peptide … (position 77, 10 amino acids)] yielded a relative binding ratio (IC50 of standard peptide / IC50 of test peptide) (ratio to standard peptide) (HLA-A*0301 (human) [1]) of 0.0002.

Work on TLLQQYCLYL (modifications not checked) [HPV16 E1 253 …] yielded a relative binding ratio (IC50 of standard peptide / IC50 of test peptide) (ratio to standard peptide) (HLA-A*0201 (human)) of 0.65.

SVICFVNSK (modifications not checked) [HPV16 E1 497 …] gave a binding affinity ratio (IC50 of standard peptide / IC50 of test peptide) (HLA-A*0301 (human) [1]) of 0.0005.

For SLACSWGMV (modifications not checked), the relative binding ratio (IC50 of standard peptide / IC50 of test peptide) (ratio to standard peptide) (HLA-A*0201 (human)) was 0.082.

Binder PLCPEEKQR (modifications not checked) has a binding affinity ratio (IC50 of standard peptide / IC50 of test peptide) (HLA-A*0301 (human) [2]) of 0.0002 and a binding affinity ratio (IC50 of standard peptide / IC50 of test peptide) (HLA-A*1101 (human)) of 0.0005.

In the case of LLIRCINCQK (modifications not checked), the binding affinity ratio (IC50 of standard peptide / IC50 of test peptide) (HLA-A*0301 (human) [2]) is reported as 0.021 and the binding affinity ratio (IC50 of standard peptide / IC50 of test peptide) (HLA-A*1101 (human)) is reported as 0.18.

Work on TAQEAKQHR (modifications not checked) [HPV16 E1 72 …] yielded a binding affinity ratio (IC50 of standard peptide / IC50 of test peptide) (HLA-A*0301 (human) [1]) of 0.0005.

Work on RFEDPTRRPY (modifications not checked) [HPV18 E6 peptide … (position 3, 10 amino acids)] yielded a relative binding ratio (IC50 of standard peptide / IC50 of test peptide) (HLA-A*0301 (human) [1]) of 0.0002.

With KLRSTAAAL (modifications not checked) [HPV16 E1 311 …] the relative binding ratio (IC50 of standard peptide / IC50 of test peptide) (HLA-A*0201 (human)) was 0.0003.

In the case of NIHPAKDNR (modifications not checked) [… (HPV18 E1, position 574, 9 amino acids)], the binding affinity ratio (IC50 of standard peptide / IC50 of test peptide) (HLA-A*0301 (human) [1]) is reported as 0.0005.

For IILECVYCK (modifications not checked), the binding affinity ratio (IC50 of standard peptide / IC50 of test peptide) (HLA-A*0301 (human) [2]) was 0.0016 and the binding affinity ratio (IC50 of standard peptide / IC50 of test peptide) (HLA-A*1101 (human)) was 0.019.

SLACSWGMVV (modifications not checked) gave a relative binding ratio (IC50 of standard peptide / IC50 of test peptide) (ratio to standard peptide) (HLA-A*0201 (human)) of 0.13.

Binder RLKAICIEK (modifications not checked) [HPV16 E1 109 …] has a binding affinity ratio (IC50 of standard peptide / IC50 of test peptide) (HLA-A*0301 (human) [1]) of 0.084.

CVQSTHVDIR (modifications not checked) was tested, and the binding affinity ratio (IC50 of standard peptide / IC50 of test peptide) (HLA-A*0301 (human) [2]) was 0.0049 and the binding affinity ratio (IC50 of standard peptide / IC50 of test peptide) (HLA-A*1101 (human)) was 0.0001.

LMKFLQGSVI (modifications not checked) [HPV16 E1 490 …] showed a relative binding ratio (IC50 of standard peptide / IC50 of test peptide) (HLA-A*0201 (human)) of 0.0003.

GTTLEQQYNK (modifications not checked) showed a binding affinity ratio (IC50 of standard peptide / IC50 of test peptide) (HLA-A*0301 (human) [2]) of 0.0002 and a binding affinity ratio (IC50 of standard peptide / IC50 of test peptide) (HLA-A*1101 (human)) of 0.07.

EGTGCNGWF (modifications not checked) [HPV31 E1 peptide … (position 10, 9 amino acids)] was tested, and the binding affinity ratio (IC50 of standard peptide / IC50 of test peptide) (ratio relative to standard peptide) (HLA-A*0301 (human) [1]) was 0.0008.

NSGQKKAKR (modifications not checked) [… (HPV18 E1, position 119, 9 amino acids)] showed a binding affinity ratio (IC50 of standard peptide / IC50 of test peptide) (HLA-A*0301 (human) [1]) of 0.0005.

For GVLILALLR (modifications not checked) [HPV18 E1 279 …], the binding affinity ratio (IC50 of standard peptide / IC50 of test peptide) (HLA-A*0301 (human) [1]) was 0.0058.

With KSFLKGTPK (modifications not checked) [HPV18 E1 peptide … (position 468, 9 amino acids)] the relative binding ratio (A*0301) (HLA-A*0301 (human) [1]) was 0.0003.

In the case of AGHYRGQCH (modifications not checked) [HPV18 E6 peptide … (position 131, 9 amino acids)], the relative binding ratio (IC50 of standard peptide / IC50 of test peptide) (ratio to standard peptide) (HLA-A*0301 (human) [1]) is reported as 0.0005.

For QLKCPPLLI (modifications not checked) [HPV16 E1 556 …], the relative binding ratio (IC50 of standard peptide / IC50 of test peptide) (ratio to standard peptide) (HLA-A*0201 (human)) was 0.0049.

Binder DIILECVYCK (modifications not checked) has a binding affinity ratio (IC50 of standard peptide / IC50 of test peptide) (HLA-A*0301 (human) [2]) of 0.0065 and a binding affinity ratio (IC50 of standard peptide / IC50 of test peptide) (HLA-A*1101 (human)) of 0.021.

Work on RARQERLQR (modifications not checked) [HPV18 E6 peptide … (position 144, 9 amino acids)] yielded a relative binding ratio (IC50 of standard peptide / IC50 of test peptide) (HLA-A*1101 (human)) of 0.0002.

In the case of SLFGMSLMK (modifications not checked) [HPV16 E1 484 …], the binding affinity ratio (IC50 of standard peptide / IC50 of test peptide) (HLA-A*0301 (human) [1]) is reported as 0.72.

Binder KLRHLNEKRR (modifications not checked) [HPV18 E6 peptide … (position 117, 10 amino acids)] has a relative binding ratio (IC50 of standard peptide / IC50 of test peptide) (HLA-A*1101 (human)) of 0.0001.

AMFQDPQER (modifications not checked) [HPV16 E6 position 7 peptide …] was tested, and the binding affinity ratio (IC50 of the standard peptide / IC50 of the test peptide) (HLA-A*0301 (human) [1]; [3]) was 0.017.

In the case of AVCDKCLK (modifications not checked) [HPV16 E6 peptide AVCDKCLK], the binding affinity ratio (IC50 of standard peptide / IC50 of test peptide) (HLA-A*0301 (human) [2]) is reported as 0.0053 and the binding affinity ratio (IC50 of standard peptide / IC50 of test peptide) (HLA-A*1101 (human)) is reported as 0.011.

Work on WTGRCMSCCR (modifications not checked) [… (HPV16 E6, position 139)] yielded a relative binding ratio (IC50 of standard peptide / IC50 of test peptide) (ratio to standard peptide) (HLA-A*0301 (human) [1]) of 0.0003.

In the case of AVCDKCLKF (modifications not checked), the binding affinity ratio (IC50 of the standard peptide / IC50 of the test peptide) (HLA-A*0301 (human) [1]) is reported as 0.0002.

VCDKCLKFY (modifications not checked) [… (HPV16 E6, position 69)] showed a relative binding ratio (IC50 of standard peptide / IC50 of test peptide) (ratio to standard peptide) (HLA-A*0301 (human) [1]) of 0.0002.

With CVYCKQQLLR (modifications not checked) the binding affinity ratio (IC50 of standard peptide / IC50 of test peptide) (HLA-A*0301 (human) [2]) was 0.0001 and the binding affinity ratio (IC50 of standard peptide / IC50 of test peptide) (HLA-A*1101 (human)) was 0.0005.

Work on AFRDLCIVY (modifications not checked) [HPV16 E6 position 53 peptide …] yielded a binding affinity ratio (IC50 of the standard peptide / IC50 of the test peptide) (HLA-A*0301 (human) [1]) of 0.0052.

NIRGRWTGR (modifications not checked) [… (HPV16 E6, position 134)] gave a relative binding ratio (IC50 of standard peptide / IC50 of test peptide) (ratio to standard peptide) (HLA-A*0301 (human) [1]) of 0.0014.

LLQQYCLYL (modifications not checked) [HPV16 E1 254 …] showed a relative binding ratio (IC50 of standard peptide / IC50 of test peptide) (HLA-A*0201 (human)) of 0.1.

In the case of SLMKFLQGSV (modifications not checked) [HPV16 E1 489 …], the relative binding ratio (IC50 of standard peptide / IC50 of test peptide) (ratio to standard peptide) (HLA-A*0201 (human)) is reported as 0.025.

With AVCDKCLK (modifications not checked) [HPV16 E6 position 68 peptide AVCDKCLK] the binding affinity ratio (IC50 of the standard peptide / IC50 of the test peptide) (HLA-A*0301 (human) [1]) was 0.0053.

In the case of SCCRSSRTR (modifications not checked) [… (HPV16 E6, position 145)], the relative binding ratio (IC50 of standard peptide / IC50 of test peptide) (ratio to standard peptide) (HLA-A*0301 (human) [1]) is reported as 0.0003.

With EVYDFAFR (modifications not checked) [HPV16 E6 peptide EVYDFAFR] the binding affinity ratio (IC50 of standard peptide / IC50 of test peptide) (HLA-A*0301 (human) [2]) was 0.0004 and the binding affinity ratio (IC50 of standard peptide / IC50 of test peptide) (HLA-A*1101 (human)) was 0.0025.

GIVCPICSQK (modifications not checked) showed a binding affinity ratio (IC50 of standard peptide / IC50 of test peptide) (HLA-A*0301 (human) [2]; [3]) of 0.0003 and a binding affinity ratio (IC50 of standard peptide / IC50 of test peptide) (HLA-A*1101 (human); [3]) of 0.067.

DSIPHAACH (modifications not checked) [HPV18 E6 peptide … (position 58, 9 amino acids)] gave a relative binding ratio (IC50 of standard peptide / IC50 of test peptide) (ratio to standard peptide) (HLA-A*0301 (human) [1]) of 0.0005.

Binder EGTGCNGWFY (modifications not checked) [HPV31 E1 peptide … (position 10, 10 amino acids)] has a binding affinity ratio (IC50 of standard peptide / IC50 of test peptide) (ratio relative to standard peptide) (HLA-A*0301 (human) [1]) of 0.0005.

LCPEEKQRH (modifications not checked) [… (HPV16 E6, position 117)] showed a relative binding ratio (IC50 of standard peptide / IC50 of test peptide) (ratio to standard peptide) (HLA-A*0301 (human) [1]) of 0.0003.
